Results as given in the nanobody polyreactivity screen of Harvey et al. (2022).

experiment: yeast display, Sf9 membrane polyspecificity reagent, FACS + sequencing; frameworks hold sequencing errors
Summary of the method: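 Genes from sorted yeast were amplified by colony PCR, read by MiSeq 2 × 250 sequencing and filtered on CDR length. These cells carried a synthetic nanobody library in Saccharomyces cerevisiae BJ5465 and were sorted by FACS into low and high (top ~1%) gates on anti-HA and streptavidin fluorescence. Polyreactivity is labelled according to the gate of origin.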

Sequence	polyreactivity (PSR sort gate)
QVQLVESGGGLVQAGGSLRLSCAASGSTFSYNAMGWYRQAPGKERELVAAISRRGGGTYYADSVKGRFTISRDKAKNTVSLHMNSLKPVDTAVYYCNADIWYKTYDYWGQGTQVTVSS	low polyreactivity
QVQLVESGVGLVQAGGSLRLSCAASGSTFDFNAMGWYRPAPGKERELVAAITGSGGSTDYADSVKGRFTISRDNAKNTVYLQMNSLKPEDTAVYYCNAGKTIDYRDGVGYDHWGQGTQVTVSS	low polyreactivity
QVQLVESAGGLVQAGGSLRLSCAASGFIFRYNTMGWYRQAPGKERELVATINRSGGSTYYADSVKGRFTISRDNAKNTVYLQMNSLKPEDTAVYYCAAVSLQPYYIAGATWDGDYWGQGTQVTVSS	high polyreactivity
QVQLVESGGRLLQAGGSLRLSCAASGRTFRRYAMGWYRPAPGKERELLAAISASGGSTYYADSVKGRFTISRDNAKNTVYLQMNSLKPEDTAVYYCAADWYSYLHGTKYGYWGQGTQVTVSS	high polyreactivity
QVQLVESGGGLVQAGGSLRLSCAASGRIFLYNAMGSYRQAPGKVRELVASISSGVTTNYADSVKGRFTISRDNAKKTVYLQMNSLKPEDTAVYYCAADGQYSVIVKYDSWGQGTQVTVSS	low polyreactivity
QVQLVESGGGLVQAGGSLRLSCAASGRTFYLNVMGWYRQAPGKEREFVASISTTGGSTYYADSVKGRFTISRDNAKNTVYLQMNSLKPDDTAVYYCAASLRYWARNYWGQGTQVTVSS	high polyreactivity
QVQLEESGGGLVQAGGSLRLSCAASGSTFYLYDMGWYRQAPGKERELVATITSATSTTYADSVKGRFTISRDNATNTVYLQMNSLNPEHTAVYYCNATDVGIITVGYGHGGYYWGQGTQVTVSS	low polyreactivity
QVQLVESGGGLVQAGGSLRLSCASSGLIFPYNAMGWYRKAPGKERELVAAIDSGVTTYYADSVKGRFTISRDNAKNTVYLQMNSLKPEDTAVYYCAAVGLPGPEGDSWGQGTQVTVSS	low polyreactivity
QVQLVESGGGLVQAGGSLRLSCAASGRTSDGYAMGWYRPAPGKERELVAGITEGGGDTYYADSVKGRFTISRDNAKNTVYLQMNSLKPEDTAVYYCNAVEGSRLPYDYWGQGTQVTVSS	low polyreactivity
QVQLVESGGGLVQAGGSLRLSCAASGRIFKGYAMGWYRQAPGKERELVASISKRGVSTYYADSVKGRFTISRDNAKNTVYLQMNSLKPEDTAVYYCNARAPGYYYTRYDYWGQGTQVTVSS	high polyreactivity
QVQLVESGGGLVQAGGSLRLSCAASGITFASNTMGWYRQAPGKERELVAAITRGDNTYYADSVKGRFTISRDNAKNTVYLQMNSLKPEDTSVYYCATEGYQIQYEHDYWGQGTQVTVSS	low polyreactivity
QVKRVESGGGLVQAGGSLRLSCAASGSIVVTNAMGWYRQAPGKERELVAAITSSGSTDYADSVKGRFTISRDNAKNTVSLLMKILKREDTAVYYCNADVATGIFYGYDSWGQGTQVTVSS	low polyreactivity
QVQLVESGGGLVQAGGSLRLSCAASGSIFGQNAMGWYRQAPGKERELVAAITTSRGSTYYADSVKGRFTISRDNPKNTVDFQMNSLNPEDTAVYYCAARYVTPGYIIYVYWGQGTQVTVSS	high polyreactivity
QVQLVDSGGGKVQAGGSLRLSCAASGRTFLVYAMGWYRQAPGKERELVAAISRSGGRTSYADSVKGRFTISRDNAKNTVYLQMNSLKPEDTAVYYCAASGPPCDMDYWGQGTQVTVSS	high polyreactivity
QVLLVESGGGLVQAGGSLRLSCAASGFIFPYNAMGWYRQAPGKERELVASISGSGRTNYADSVKGRFTISRDNAKNTVYLQMNSLKPEDTAVYYCNKRWYVQKGYDYWGQGTQVTVSS	high polyreactivity
QVQLVESGGGLVQAGGSLRLSCAASGRTFYIYAMGWYRQAPGKERELVAAITSGTSSTYYADSVKGRFTISRDNAKNTVYLQMNSLKPEDTAVYYCAASSTGYGGSTYYYWGQGTQVTVSS	low polyreactivity
QVQLVESGGGLVQAGGSLRLSCAASGYTFTHNAIGWYRQAPGKERELVATIRNSGSRTYYADSVKGRFTISRDNGKNTVYLQMNSLKPEDTAVYYCAARLLYRHFGYWGQGTQVTVSS	high polyreactivity
QVQLVESVGGLVQAGASLRLSCAASGFTIDRYAMGWYIQAPAKERELVAAISGSGGRTYYADSVKGRFTISRDNAKNTVYLQMNSLKPEVTAVYYCAAVYLVTRGARYDYCGQGTQVTVSS	high polyreactivity
QVQLVESGGGLVQAGGSLRLSCAASGRIFYSYAMGWYRQAPGKERELVAAITDSGGSTYADSVKGRFTISRDNAKNTVYLQMNSLKPEDTAVYADSTYNWYYYYWGQGTQVTVSS	low polyreactivity
QVQLVESGGGLVQAGGSLRLSCAASGIGCYRQAPGKERELVAAINWSGGNTYYADSVKGRFTISRDNAKNTVYLQMNSLKPEDTAVYYCNAVVWVEVPGDYWGQGTQVTVSS	low polyreactivity
QVQLVESGGGLVQAGGSIRLSCAASGSIYPFYSMGWYRQATGKEMELVAAISDSGGDTYYADSVKGRFTISRDNAKNTVYLQMNSLKPEDTAVYYCAADWFYNSFNYWGQGTQVTVSS	low polyreactivity

Sequence	polyreactivity (PSR sort gate)
QVQLQESGSGLVQAGGSLRLSCAASGYISLGDNMGWYRQAPGKEREFVATISVGGITYYVDSVKGRFTISRDIAKNTVYLQMNSLKPEDTAVYYCADLDIYYFRYYYWGQGTQVTVSS	low polyreactivity
QVQLVESGGRLVQAGRSLRLSCAASGINFYGYAMGWYRQAPGKERELVAAITSYDGSTYYADSVKGRFTISRDNAKNTVYLQMNSLKPEDTAVYYCAAYRYGSRGGYWGQGTQVTVSS	high polyreactivity
QVQLVESGGGLVQAGGSLGLSCAASGSTFHLYAMGWYRQAPGKEREFVAAIRGRGGNTYADSVKGRFTISRDNAKNTVSLQMNSLKPEDTAVYYCAAPLLRVLRSPYSYNYWGQGTQVTVSS	low polyreactivity
QVQLVESGGGLVQAGGSLRLSCAATGRIFSLYAMGWYRQAPGKERELVASITRSGVRTYYADSVKGRFTISRDNAKNTVYLQMNSLKPEDTAVYYCAAPYLYSQGTYYRSSGMDYWGQGTQVTVSS	low polyreactivity
QVQLVESGGGLVQAGGSLRLSCAASGFTFWANAMGWYRQAPGKERELVAAISWSGGSTTYADSVKGRFTISRDNAKNTVYLQMNSLKPEETAVYYCATDYGHYVTYRLSDYWGQGTQVTVSS	low polyreactivity
QVQLVESGGGLVQAGGSLRLSCAASGSTFDANAMGWYRQAPGKERELVATISDGGSTNYADSVKGRFTISRDNAKNTVYLQMNSLKPEDTAVYYCAAVKLFLGLGYDYWGQGTQVTVSS	low polyreactivity
QVQLVESGGGLVQAGGSLRLSCAASGGILSDYAMGWYRQAPGKERELVAAITISGGRTNYADSVKGRITISRDNAKITVYLQMNSLKPEDTAVSYCNKLPWSVRVYKPYDYWGEGTQVTVSS	low polyreactivity
QVQLVESGGGLVKAGGSLRLSCAASGRIFYTNDMGWYSQAPGKERELVATISSTGSTNYADSVKGRFTISRDNAKNTVYLEMNSLKPEDTAVYYCAADRSYFLRCIIYDYWGQGTQVTVSS	low polyreactivity
QVQLVESGGGLVQAGGSLRLSCAASGRIFAFYAMGWSRPAPGKERELVAAITSGGSTKYADSVKGRFTISRDNAKNTVYLQMNSLKPEDTAVYYCAAQYRYQRYSYAMEYWGQCTQVTVSS	high polyreactivity
QVQLVESGGGLVQAGGSLRLSCAASGGTFFGYAMGWYRQAPGKERELVAAIRWSDGRTYYADSVKGRFTISRDNAKNTVYLQMNSLKPEDTAVYDCNADDARLFDYWGQGTQVTVSS	low polyreactivity
QVQLVESDGGLDQAGRSLRLSFAASGTIFDPYSMGWYRQEPGKERELVAAISWSDSSTYYADSVKGRFTISRDNAKNTVYLQKNSLKPEDTAVYYCASDYDLYFYLYEYWGQGTQVTVSS	high polyreactivity
QVQIVESGGGLVQAGGSLRLSCAASGSTFGGNAMGWYRQAPGKERDLVAVISKRGGSKYYADSVKGRFTISRDNAKNTVYLQMNSLKPEDTAVYYCAATYSRYWSPTYDYWGQGTQVNVSS	high polyreactivity
QVQLVESRGGLVHAGGSLGLSCAASGSTFGVNAMGWYRQAPGKERELVASISSGGGTYYADSVKGRFTISRDNSKNTVYLQMNSLKPEDTAVYYCAAVYYWYDSYAGYDYWGQGTQVTVSS	low polyreactivity
QVQIVESGGGLVQAGRSLRLSCAASGFIFFPYVMGWYRPAPVKERELVARITSGGGSTYYADSVKGRFSISRDNAKNTVYLEMYSLKPEDTAVYYCAARFRFPPSYDYWGQCTQVTVSS	high polyreactivity
QVQLVESGGGLVQAGGSLRLSCAASGSIFYAYAMRWYRQAPGKERELVAVINSGGSTYYADSVKGRFTISRDNAKNTVYLQMHSLKPEDTAVYYCNATQDRGKYDYPPRGRGYYYWGQGTQVTVSS	high polyreactivity
QVQLVESGGGLVQAGGSLRLSCAASGFTFRKKAMGWYRQAPGKERELVAAIRGSAGSTYYADSVKGRFTNSRDNAKITVYLQMNSLQQEDTAVYYCATGGYPSLWYGYGYWGQGTQVTVSS	low polyreactivity
QVKLVESGGGLFQAGGSLRLSCAASGITFTFNAMGWYRQAPGKERELVAAITWSGGSTFYADSVKGRFTISRDNAKNTVYLQMNSLKPEDTAVYYCARDTELYVRWLDYWGQGTQVTVSS	low polyreactivity
QDQLVESGGGLVQAGGSLRLSCAASGRIFKFNAMGWYRPAPGKERELVAAITSGGSTNYADSVKGRFTLSRDNEKNTVYLQMNSLKREDTAVYYCAKSTPRFYPRGFYYWGHGTQVTVSS	low polyreactivity
QVQHVESAGGLVQAGGILRLSCAASGSTFVGNAMGWYRQAPGKEREWVATISNSGGRTDYADSVKGRFTISRDNAKNTVYLQMNSLKPEDTAVYYCAADHPAFGPGYSFDYWGQGTQVTVSS	low polyreactivity
QVQLVESGGGLVQAGGSLRLSCAASGRTFAWYAMGWYRQAPGKERELVAVIRRGSGDTYYADSVKGRFTISRDNAKNTVYLQMNSLKPEDTAVYYCAAEGRFSFYGGGRPKYSRYDYWGQGTQVTVSS	high polyreactivity
